We go through four molecules from patent publication US20240043552A1 (Eli Lilly, published 2024).

Numbering of substitutions follows the chain as printed. Names and notes keep the numbering of the source.

B1: Pertuzumab × Matuzumab IgG BsAb, CH1/Cκ Wild-Type (AB / H4DR variable domain designs, 7.8.60 CH3, N297Q) (bispecific antibody)
heavy 1: EVQLVESGGGLVQPGGSLRLSCAASGFTFTDYTMDWVRKAPGKGLEWVADVNPNSGGSIYNQEFKGRFTLSVDRSKNTLYLQMNSLRAEDTAVYYCARNLGPSFYFDYWGQGTLVTVSSASTKGPSVFPLAPSSKSTSGGTAALGCLVKDYFPEPVTVSWNSGALTSGVHTFPAVLQSSGLYSLSSVVTVPSSSLGTQTYICNVNHKPSNTKVDKKVEPKSCDKTHTCPPCPAPELLGGPSVFLFPPKPKDTLMISRTPEVTCVVVDVSHEDPEVKFNWYVDGVEVHNAKTKPREEQYQSTYRVVSVLTVLHQDWLNGKEYKCKVSNKALPAPIEKTISKAKGQPREPQVYTLPPSREEMTDNQVSLTCLVKGFYPSDIAVEWESNGQPENNYKTTPPVLMSDGSFFLASKLTVDKSRWQQGNVFSCSVMHEALHNHYTQKSLSLSPG
light 1: RIQMTQSPSSLSASVGDRVTITCKASQDVSIGVAWYQDKPGKAPKLLIYSASYRYTGVPSRFSGSGSGTDFTLTISSLQPEDFATYYCQQYYIYPYTFGQGTKVEIKRTVAAPSVFIFPPSDEQLKSGTASVVCLLNNFYPREAKVQWKVDNALQSGNSQESVTEQDSKDSTYSLSSTLTLSKADYEKHKVYACEVTHQGLSSPVTKSFNRGEC
heavy 2: QVQLVQSGAEVKKPGASVKVSCKASGYTFTSHWMHWVRYAPGQGLEWIGEFNPSNGRTNYNEKFKSKATMTVDTSTNTAYMELSSLRSEDTAVYYCASRDYDYDGRYFDYWGRGTLVTVSSASTKGPSVFPLAPSSKSTSGGTAALGCLVKDYFPEPVTVSWNSGALTSGVHTFPAVLQSSGLYSLSSVVTVPSSSLGTQTYICNVNHKPSNTKVDKKVEPKSCDKTHTCPPCPAPELLGGPSVFLFPPKPKDTLMISRTPEVTCVVVDVSHEDPEVKFNWYVDGVEVHNAKTKPREEQYQSTYRVVSVLTVLHQDWLNGKEYKCKVSNKALPAPIEKTISKAKGQPRRPRVYTLPPSREEMTKNQVSLVCLVKGFYPSDIAVEWESNGQPENNYKTTPPVLDSDGSFFLYSVLTVDKSRWQQGNVFSCSVMHEALHNHYTQKSLSLSPG
light 2: DIQMTQSPSSLSASVGDRVTITCSASSSVTYMYWYQRKPGDAPKLLIYDTSNLASGVPSRFSGSGSGTDYTFTISSLQPEDIATYYCQQWSSHIFTFGQGTKVEIKRTVAAPSVFIFPPSDEQLKSGTASVVCLLNNFYPREAKVQWKVDNALQSGNSQESVTEQDSKDSTYSLSSTLTLSKADYEKHKVYACEVTHQGLSSPVTKSFNRGEC
notes: Human IgG1; also called Pertuzumab × Matuzumab Wild-Type
B2: Pertuzumab × Matuzumab IgG BsAb, CH1/Cκ design 14.3.1.2 (bispecific antibody)
heavy 1: B1 heavy 1 with K149A, S185G
light 1: B1 light 1 with S131R, S176I
heavy 2: B1 heavy 2 with K217E
light 2: B1 light 2 with E122K
notes: Human IgG1; also called Pertuzumab × Matuzumab 14.3.1.2
B3: Pertuzumab × Matuzumab IgG BsAb, CH1/Cκ design 14.1.2 (bispecific antibody)
heavy 1: B1 heavy 1 with K149A, K215E
light 1: B1 light 1 with E123K, S131R
heavy 2: B1 heavy 2
light 2: B1 light 2
notes: Human IgG1; also called Pertuzumab × Matuzumab 14.1.2
B4: Pertuzumab × Matuzumab IgG BsAb, CH1/Cκ design 14.3.1.1 (bispecific antibody)
heavy 1: B1 heavy 1 with K149A, S185A
light 1: B1 light 1 with S131R, S176I
heavy 2: B1 heavy 2 with K217E
light 2: B1 light 2 with E122K
notes: Human IgG1; also called Pertuzumab × Matuzumab 14.3.1.1

T1 sequence (P08581 25-932): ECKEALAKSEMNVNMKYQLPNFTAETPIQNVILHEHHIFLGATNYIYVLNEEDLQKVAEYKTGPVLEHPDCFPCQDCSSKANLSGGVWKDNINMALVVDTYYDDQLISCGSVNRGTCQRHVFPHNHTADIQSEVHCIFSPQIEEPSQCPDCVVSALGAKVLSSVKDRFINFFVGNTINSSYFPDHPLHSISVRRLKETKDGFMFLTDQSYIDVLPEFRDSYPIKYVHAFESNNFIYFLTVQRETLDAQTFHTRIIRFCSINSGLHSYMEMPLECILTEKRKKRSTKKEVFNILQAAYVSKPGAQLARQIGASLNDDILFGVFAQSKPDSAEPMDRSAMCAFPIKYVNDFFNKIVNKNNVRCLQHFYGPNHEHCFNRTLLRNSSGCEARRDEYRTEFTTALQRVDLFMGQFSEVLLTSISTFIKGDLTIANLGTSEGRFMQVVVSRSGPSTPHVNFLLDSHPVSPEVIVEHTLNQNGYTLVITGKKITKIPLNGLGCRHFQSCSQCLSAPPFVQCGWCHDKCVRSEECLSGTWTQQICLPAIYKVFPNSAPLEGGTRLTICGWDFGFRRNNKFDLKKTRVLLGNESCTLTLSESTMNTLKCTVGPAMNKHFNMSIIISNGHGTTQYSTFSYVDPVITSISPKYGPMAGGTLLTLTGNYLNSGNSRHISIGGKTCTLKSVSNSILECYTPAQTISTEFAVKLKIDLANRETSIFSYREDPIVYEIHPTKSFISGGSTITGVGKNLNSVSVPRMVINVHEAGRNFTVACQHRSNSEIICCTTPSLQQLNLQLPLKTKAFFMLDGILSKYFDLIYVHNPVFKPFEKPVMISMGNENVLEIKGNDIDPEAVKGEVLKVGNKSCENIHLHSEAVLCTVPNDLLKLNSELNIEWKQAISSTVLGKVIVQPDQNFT

One assay addresses T1, hHGFR(cMet)-Fc (human, UniProt P08581 25-932).
T1 construct: Bought (R&D systems); Coated on the plate; not shown: Fc of the bought fusion protein
Nature of the assay: sandwich ELISA with mis-matched antigens. How it is done: (§1) The dual-binding activity of the same synthesized IgG BsAbs is assessed using a sandwich ELISA. […] Sandwich ELISAs are developed for detecting the four different BsAb test articles; one for detecting anti-HER-2/anti-EGFR BsAb activity, one for detecting anti-HER-2/anti-LTPR BsAb activity, one for detecting anti-cMET/anti-EGFR BsAb activity and one for detecting anti-cMET/anti-LTPR BsAb activity. For all ELISAs, clear 96-well round bottom high binding Immulon microtiter plates (Greiner bio-one, cat #650061) are coated overnight at 2-8° C. with 50 μL/well 1 μg/mL hHER-2-Fc or 1 μg/mL hHGFR(cMet)-Fc (both from R&D systems) in a 50 mM Na2CO3 pH 8.3 buffer. The plates are washed 4 times with PBST and blocked with 200 μL/well casein buffer (Pierce) for 1 hr at room temperature. The plates are then washed 4 times with PBST and the parental IgG controls or BsAb IgG test articles are added at 50 μL/well and […] and serially diluted 1:3 down the plate. The controls and test articles are incubated on the plate for 1 hr at room temperature. The plates are then washed 4 times with PBST and 50 μL/well 1 μg/mL hEGFR-Fc-biotin or hLTβR-Fc-biotin (both from R&D systems) is added for 1 hr at room temperature. The plates are then washed 4 times with PBST followed by the addition of a 50 μL/well streptavidin-AP (Jackson Immunoresearch Labs Cat. #016-050-084) diluted 1:1000 in casein buffer. The streptavidin-AP is incubated in each well for 1 hr at room temperature. The plates are then washed 4 times with PBST and 100 μL/well 1-step PNPP substrate is added (Thermo Scientific Cat. #37621). After approximately 5-15 minutes, plates are read for Absorbance (405 nm) using a SPECTRAMAX® UV plate reader (Molecular Devices). Biotin-labeling of the hEGFR-Fc and hLTβR-Fc proteins is performed using EZ-LINK™ Sulfo-NHS-LC-Biotin (Thermo Scientific Cat. #21327) according to the manufacturer's protocol.
For orientation: In an ELISA, binding on a coated surface is turned into a signal by an enzyme label.
Turning to B1, the binding result was “no binding”.
Still for that read-out and setting: next, B2: “no binding”.
On the same count and under the same terms, with B3 the entry was “no binding”; with B4, “no binding”.

The next assay deals with T2, hLTβR-Fc-biotin (human, UniProt P36941 28-227, limits assumed, biotin-labelled with EZ-LINK Sulfo-NHS-LC-Biotin).
T2 construct: Bought (R&D systems); Detection antigen of the sandwich; also called LTPR (as printed once); not shown: Fc of the bought fusion protein
T2 sequence (P36941 28-227 limits assumed): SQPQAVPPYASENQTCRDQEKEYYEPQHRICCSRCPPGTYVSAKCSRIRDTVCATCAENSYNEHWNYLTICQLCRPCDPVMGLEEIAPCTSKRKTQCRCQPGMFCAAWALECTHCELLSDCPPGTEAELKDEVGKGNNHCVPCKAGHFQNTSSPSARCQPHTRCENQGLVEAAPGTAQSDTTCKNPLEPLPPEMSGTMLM
The assay is described as follows: sandwich ELISA with mis-matched antigens. How it is done: as §1
Take B1: the binding result is “no binding”.
On the same count and under the same terms, with B2 the entry was “no binding”; with B3, “no binding”.
With B4, the binding result is given as “no binding”.
